Measured values reported in patent publication US20120177636A1.

Tests used:
[1] = target: CA215 on NaIO4-treated OC-3-VGH cancer cells (human); assay: direct binding EIA on OC-3-VGH cell-coated wells, with NaIO4 treatment
CA215 (human) [2] = assay: direct binding EIA on OC-3-VGH cell-coated wells, without NaIO4 treatment
CA215 (human) [3] = assay: sandwich EIA: antibody coated at 5 µg/ml, OC-3-VGH shed medium, HRP-labeled RP215 as detector; no human IgG
CA215 (human) [4] = assay: sandwich EIA: antibody coated at 5 µg/ml, OC-3-VGH shed medium, HRP-labeled RP215 as detector; with 10 µg/ml human IgG
CA215 (human) [5] = assay: two-step ELISA on OC-3-VGH cancer cells, goat anti-mouse IgG-ALP; OD over that of normal mouse IgG at the same concentration
CA215 (human) [6] = assay: sandwich EIA: antibody coated at 5 µg/ml, OC-3-VGH shed medium, HRP-labeled RP215 as detector; no human IgG; relative to RP215
CA215 (human) [7] = assay: sandwich EIA: antibody coated at 5 µg/ml, OC-3-VGH shed medium, HRP-labeled RP215 as detector; with 10 µg/ml human IgG; relative to RP215
[8] = target: RP215 monoclonal antibody; assay: ELISA, RP215 coated in wells, goat antibody as detector; row normalised to RP215
Chain of RP215 monoclonal antibody (VH, as listed by the source, chain 1 of 2): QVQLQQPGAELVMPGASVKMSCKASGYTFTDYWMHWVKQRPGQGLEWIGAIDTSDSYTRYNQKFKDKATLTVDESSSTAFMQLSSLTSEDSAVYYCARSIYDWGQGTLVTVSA
Chain of RP215 monoclonal antibody (VL, as listed by the source, chain 2 of 2): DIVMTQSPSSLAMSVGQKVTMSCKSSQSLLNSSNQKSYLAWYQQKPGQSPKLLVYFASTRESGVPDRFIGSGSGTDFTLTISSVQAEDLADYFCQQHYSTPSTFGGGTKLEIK

humanized RP215 = assay: ELISA, hRP215 coated in wells, goat antibody as detector; row normalised to RP215
chimeric RP215 mAb = assay: ELISA, chRP215 coated in wells, goat antibody as detector; row normalised to RP215
Chain of chimeric RP215 mAb (VH, as listed by the source, chain 1 of 2): as the sequence (VH, as listed by the source, chain 1 of 2) above
Chain of chimeric RP215 mAb (VL, as listed by the source, chain 2 of 2): as the sequence (VL, as listed by the source, chain 2 of 2) above

human IgG (human) = assay: ELISA, human IgG coated in wells, goat antibody as detector; row normalised to RP215

RP215 monoclonal antibody showed an Optical Density at 450 nm [1] of 0.797, a percent maximum binding [1] of 37% and an Optical Density at 450 nm (CA215 (human) [2]) of 2.15. The percent maximum binding (CA215 (human) [2]) was 100%, the Relative Signal Intensity in Sandwich EIA (CA215 (human) [3]) was 100% and the Relative Signal Intensity in Sandwich EIA (CA215 (human) [4]) was 100%. For the same substance, the ODs405/ODn405 (CA215 (human) [5]) was 11.6.
For chimeric RP215 mAb (antibody), the Relative Signal Intensity in Sandwich EIA (CA215 (human) [6]) was 14.5% and the Relative Signal Intensity in Sandwich EIA (CA215 (human) [7]) was 15.4%.
Work on goat anti-mouse IgG (antibody) yielded a Relative Intensity [8] of 100%, a Relative Intensity (humanized RP215) of 5% and a Relative Intensity (chimeric RP215 mAb) of 7%. For the same substance, the Relative Intensity (human IgG (human)) was 3%.
